Data: patent US12365732 (23ANDME, dated 2025)

Key:
[1] = target: T1, cy-CD96 Fc (cynomolgus monkey, biotinylated in Table 16); experiment: SPR 25C, CD96-Fc on Protein A, Fab analyte
T1 construct: also called biotinylated cy-CD96-Fc
Protocol: Briefly, hu-CD96 Fc and cy-CD96 Fc were diluted at 10 µg/mL in HBS-P buffer (0.01 M HEPES pH 7.4, 0.15 M NaCl, 0.005% Surfactant P20) and applied to the Protein A chip at 30 µL/min flow rate for 60 s in flow cell 2 (FC2). Then flow 3-fold serial dilutions of mAb1.v7 Fab variants in HBS-P buffer (0.01 M HEPES pH 7.4, 0.15 M NaCl, 0.005% surfactant P20) from (0.4 nM) to high (1000 nM) were injected (flow rate: 30 µL/min) at 25° C. to both flow cell 1 (FC1) and flow cell 2 (FC2). The sensorgram was recorded and subject to reference and buffer subtraction before evaluating by BIA- CORE® 8K Evaluation Software (version 1.1.1.7442). Association rates ($kon$) and dissociation rates ($koff$) were calculated using a simple one-to-one Langmuir binding model. The equilibrium dissociation constant (K_D) was calculated as the ratio of $koff/kon$, and the values determined for the mAb1.v7 and the 5 Fab variants are summarized in Table 10 (below).

[2] = target: T2, hu-CD96 isoform 1 on HEK293T cells (human, UniProt P40200 22-585); experiment: FACS, Ab 2 nM
T2 construct: Origene RC213845, transient expression; also called HEK293T-CD96 (iso1)
T2 sequence: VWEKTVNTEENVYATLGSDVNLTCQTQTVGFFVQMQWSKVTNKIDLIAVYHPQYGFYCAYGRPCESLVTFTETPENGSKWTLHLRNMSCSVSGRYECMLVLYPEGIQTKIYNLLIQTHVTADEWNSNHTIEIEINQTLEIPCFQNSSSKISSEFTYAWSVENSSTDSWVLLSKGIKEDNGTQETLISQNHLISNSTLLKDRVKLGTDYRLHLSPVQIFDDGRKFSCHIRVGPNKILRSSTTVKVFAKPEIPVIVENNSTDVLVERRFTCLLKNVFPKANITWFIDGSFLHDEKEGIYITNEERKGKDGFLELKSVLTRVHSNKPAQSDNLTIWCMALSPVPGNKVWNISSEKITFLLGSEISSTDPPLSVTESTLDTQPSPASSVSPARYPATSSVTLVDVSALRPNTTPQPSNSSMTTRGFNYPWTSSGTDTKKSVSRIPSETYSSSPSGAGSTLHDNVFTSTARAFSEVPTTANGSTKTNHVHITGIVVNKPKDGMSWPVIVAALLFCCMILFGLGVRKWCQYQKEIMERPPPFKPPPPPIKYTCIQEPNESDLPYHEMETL
Protocol: (§1) Isoform 1 of hu-CD96 (Origene, catalog #RC213845) was transiently expressed in HEK293T cells following standard lipofectamine or Fugene transfection protocol. […] Cells were washed, and binding was detected by incubation with anti-mouse IgG-FITC (Biolegend, catalog #406001) for 20 minutes at 4° C. Cell binding was analyzed by flow cytometry with a CytoFLEX (Beckman Coulter). Binding curves were calculated as a percentage of cells positive for bound antibody.

[3] = target: T2, hu-CD96 isoform 1 on HEK293T cells; experiment: FACS, Ab 0.016 nM
Protocol: as §1

[4] = target: T3, hu-CD96 isoform 2 on CHO cells (human, UniProt P40200 22-585); experiment: FACS, % positive curve
T3 construct: also called CHO-CD96 (isoform 2); CD96-CHOs
T3 sequence: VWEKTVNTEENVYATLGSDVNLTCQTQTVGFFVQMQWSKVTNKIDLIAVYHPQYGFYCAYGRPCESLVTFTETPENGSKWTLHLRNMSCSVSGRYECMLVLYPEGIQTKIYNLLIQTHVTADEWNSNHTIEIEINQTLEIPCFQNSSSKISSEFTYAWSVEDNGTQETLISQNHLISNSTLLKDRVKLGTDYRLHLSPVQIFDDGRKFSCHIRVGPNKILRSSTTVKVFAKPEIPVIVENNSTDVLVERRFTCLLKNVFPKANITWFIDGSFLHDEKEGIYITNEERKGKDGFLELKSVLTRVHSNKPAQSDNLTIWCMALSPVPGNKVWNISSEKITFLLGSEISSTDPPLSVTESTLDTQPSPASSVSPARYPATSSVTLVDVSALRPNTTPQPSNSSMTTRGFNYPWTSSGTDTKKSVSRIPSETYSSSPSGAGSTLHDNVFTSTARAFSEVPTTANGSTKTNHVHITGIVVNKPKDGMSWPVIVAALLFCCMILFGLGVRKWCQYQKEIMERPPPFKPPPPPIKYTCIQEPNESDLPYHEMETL
Protocol: as §1
Isoform 2 of hu-CD96 (DNA construct: Origene, catalog #RC221005) was expressed on a single-cell-clone-derived CHO stable cell line. Binding of the anti-CD96 antibodies to the CHO cells were determined as described above with isoform 1 of hu-CD96.

T1 sequence (chain, as listed by the source): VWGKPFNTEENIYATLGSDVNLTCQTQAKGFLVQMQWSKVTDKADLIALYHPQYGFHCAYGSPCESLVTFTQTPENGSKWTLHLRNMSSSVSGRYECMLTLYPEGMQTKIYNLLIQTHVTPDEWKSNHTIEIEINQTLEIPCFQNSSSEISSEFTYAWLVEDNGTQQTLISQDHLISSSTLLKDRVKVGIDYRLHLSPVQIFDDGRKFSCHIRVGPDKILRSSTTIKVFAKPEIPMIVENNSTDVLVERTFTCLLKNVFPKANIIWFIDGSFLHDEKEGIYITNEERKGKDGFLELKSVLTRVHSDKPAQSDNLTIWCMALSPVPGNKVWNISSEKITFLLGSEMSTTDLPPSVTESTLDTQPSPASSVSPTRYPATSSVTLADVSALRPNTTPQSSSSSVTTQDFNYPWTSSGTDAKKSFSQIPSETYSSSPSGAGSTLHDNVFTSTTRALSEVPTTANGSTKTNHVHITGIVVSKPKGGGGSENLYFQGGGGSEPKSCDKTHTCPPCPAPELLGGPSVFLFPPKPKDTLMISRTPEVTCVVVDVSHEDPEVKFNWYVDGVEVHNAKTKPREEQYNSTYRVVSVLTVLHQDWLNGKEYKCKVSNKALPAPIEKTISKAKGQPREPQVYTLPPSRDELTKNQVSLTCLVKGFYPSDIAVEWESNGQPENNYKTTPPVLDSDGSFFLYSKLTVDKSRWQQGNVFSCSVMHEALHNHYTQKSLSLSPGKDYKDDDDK

B1: mAb1.v7.2 Fab (Fab, V domains shown)
VH: EVQLVQSGAEVKKPGASVKVSCKASGFTFTNNWRHWVRQAPGQGLEWIGMIHFNSGITNINEKFKNRVTMTTDTSTSTAYMELRSLRSEDTAVYYCRSDGVYEGYFDYWGQGTLVTVSS
VL: DIQLTQSPSSLSASVGDRVTITCKASQNVGTAIVWYQQKPGKAPKVLIYSASTRYTGVPSRFSGSGSGTDFTLTISSLQPEDFATYYCQQYSSSPLTFGQGTKVEIK
notes: also called M34R/P52aF/T97V
For B1, the Kd [1] was 9.24 nM, the koff [1] was 0.00024 s⁻¹ and the kon [1] was 26000 M⁻¹ s⁻¹.

B2: mAb1.v7.48 Fab (Fab, V domains shown)
VH: EVQLVQSGAEVKKPGASVKVSCKASGFTFTNRWMHWVRQAPGQGLEWIGMIHHNSGITNINEKFKNRVTMTTDTSTSTAYMELRSLRSEDTAVYYCRSDGVYEGYFDYWGQGTLVTVSS
VL: DIQLTQSPSSLSASVGDRVTITCKASQNVGTAIVWYQQKPGKAPKVLIYSASTRYTGVPSRFSGSGSGTDFTLTISSLQPEDFATYYCQQYSSSPLTFGQGTKVEIK
notes: also called N32R/P52aH/T97V
In the case of B2, the Kd [1] is reported as 8.9 nM, the koff [1] is reported as 0.000328 s⁻¹ and the kon [1] is reported as 36600 M⁻¹ s⁻¹.

B3: mAb1.v7.16 Fab (Fab, V domains shown)
VH: EVQLVQSGAEVKKPGASVKVSCKASGFTFTNNWRHWVRQAPGQGLEWIGMIHPNSGITNINEKFKNRVTMTTDTSTSTAYMELRSLRSEDTAVYYCRSDGVYEGYFDYWGQGTLVTVSS
VL: DIQLTQSPSSLSASVGDRVTITCKASQNVGTAIVWYQQKPGKAPKVLIYSASTRYTGVPSRFSGSGSGTDFTLTISSLQPEDFATYYCQQYSSSPLTFGQGTKVEIK
notes: also called M34R/T97V
B3 showed a Kd [1] of 94 nM, a koff [1] of 0.000972 s⁻¹ and a kon [1] of 10400 M⁻¹ s⁻¹.

B4: mAb1.v7.9 Fab (Fab, V domains shown)
VH: EVQLVQSGAEVKKPGASVKVSCKASGFTFTNNWRHWVRQAPGQGLEWIGMIHMNSGITNINEKFKNRVTMTTDTSTSTAYMELRSLRSEDTAVYYCRSDGVYEGYFDYWGQGTLVTVSS
VL: DIQLTQSPSSLSASVGDRVTITCKASQNVGTAIVWYQQKPGKAPKVLIYSASTRYTGVPSRFSGSGSGTDFTLTISSLQPEDFATYYCQQYSSSPLTFGQGTKVEIK
notes: also called M34R/P52aM/T97V
B4 was tested, and the Kd [1] was 22 nM, the koff [1] was 0.000802 s⁻¹ and the kon [1] was 36400 M⁻¹ s⁻¹.

B5: mAb1.v7.70 Fab (Fab, V domains shown)
VH: EVQLVQSGAEVKKPGASVKVSCKASGFTFTNRWMHWVRQAPGQGLEWIGMIHANSGITNINEKFKNRVTMTTDTSTSTAYMELRSLRSEDTAVYYCRSDGVYEGYFDYWGQGTLVTVSS
VL: DIQLTQSPSSLSASVGDRVTITCKASQNVGTAIVWYQQKPGKAPKVLIYSASTRYTGVPSRFSGSGSGTDFTLTISSLQPEDFATYYCQQYSSSPLTFGQGTKVEIK
notes: also called N32R/P52aA/T97V
With B5 the Kd [1] was 5 nM, the koff [1] was 0.000189 s⁻¹ and the kon [1] was 37200 M⁻¹ s⁻¹.

B6: mAb1.v7 IgG (humanized 12F8) (antibody, V domains shown)
VH: EVQLVQSGAEVKKPGASVKVSCKASGFTFTNNWMHWVRQAPGQGLEWIGMIHPNSGITNINEKFKNRVTMTTDTSTSTAYMELRSLRSEDTAVYYCRSDGTYEGYFDYWGQGTLVTVSS
VL: DIQLTQSPSSLSASVGDRVTITCKASQNVGTAIVWYQQKPGKAPKVLIYSASTRYTGVPSRFSGSGSGTDFTLTISSLQPEDFATYYCQQYSSSPLTFGQGTKVEIKG
notes: human IgG1 N297G
B6 was tested, and the “% positive” value [2] was 27.3%, the “% positive” value [3] was 0.5% and the EC50 [4] was 0.52 nM.

B7: 9H4, purified hybridoma antibody (antibody, V domains shown)
VH: EVQLLETGGGLVKSGGSLKLSCAASGFTFSDYYMYWVRQTPEKRLEWVAAISDDGTYTYYPDSVKGRFTISRDNANNYLYLQMSSLKSEDTAIYYCAKAGSYDYFDVWGAGTTVTVSS
VL: DIVLTQSPASLAVSLGQRAIISCKASQSVTFADTGLMHWYQQKPGQQPKLLIYRASNLEVGVPTRFSGSGSGTDFTLNIHPVEEEDVATYYCQQSREYPWTFGGGTKLEIK
notes: murine hybridoma IgG
With B7 the “% positive” value [2] was 28.5%, the “% positive” value [3] was 0.5% and the EC50 [4] was 0.38 nM.

B8: 7E5, purified hybridoma antibody (antibody, V domains shown)
VH: QVQLKESGPGLVAPSQSLSIICTVSGFSLTNYGIHWIRQPPGKGLEWLGIIWAGGSTNYNSALMSRLTISKDNSKSQVFLKMNSLQTNDTAIYYCARVSMMGFAYWGQGTLVTVSA
VL: QAVVTQESALTTSPGETVTLTCRSSTGAVTTSNYANWVQEKPDHLFTGLIGGTNNRAPGVPARFSGSLIGDKAALTITGAQTEDEAIYFCSLWYGSHWVFGGGTKLTVL
notes: murine hybridoma IgG
For B8, the “% positive” value [2] was 37.1%, the “% positive” value [3] was 1% and the EC50 [4] was 0.11 nM.

B9: 10G1 (clone 10G1.3G8), purified hybridoma antibody (antibody, V domains shown)
VH: QIQLVQSGPELKKPGETVKISCKASGYPFTTYGMSWVKQAPGKGLKWMGWINTDSGVPTYADDFKGRFAFSLETSANTAYLQINSLKNEDAATYFCARNIYYGWGNFDYWGQGTILTVSS
VL: DILMTQSPTTLSVTPGETVSLSCRASQDIYRNLHWYQQKSQGTPRLLIKHASDSISGIPSRFTGSGSGTDFTLSINSVKPEDEGIYYCLQGYSMPYTFGGGTKLEIK
notes: murine hybridoma IgG
For B9, the “% positive” value [2] was 48.1%, the “% positive” value [3] was 4.4% and the EC50 [4] was 0.23 nM.
